Blank lines part the entries; values can stand above or below the molecule they belong to.
Assays:
[1] = molecular target: human PlGF-1 comprising amino acids 1-137 produced in human embryonic kidney cells (human) (UniProt P49763); experiment: Format 1 …, capture 2-826-335, detection 1-255-713; sFlt-1 2300 pmol/L (ratio 75)
[2] = molecular target: human PlGF-1 comprising amino acids 1-137 produced in human embryonic kidney cells (human) (UniProt P49763); experiment: Format 2 …, capture MAb264, detection Pb264; sFlt-1 307 pmol/L (ratio 10)
[3] = molecular target: human PlGF-1 comprising amino acids 1-137 produced in human embryonic kidney cells (human) (UniProt P49763); experiment: Format 3 Quantikine ELISA, capture MAb264, detection Pb264; sFlt-1 153 pmol/L (ratio 5)
[4] = molecular target: human PlGF-1 comprising amino acids 1-137 produced in human embryonic kidney cells (human) (UniProt P49763); experiment: Format 1 …, capture 2-826-335, detection 1-255-713; sFlt-1 153 pmol/L (ratio 5)
[5] = molecular target: human PlGF-1 comprising amino acids 1-137 produced in human embryonic kidney cells (human) (UniProt P49763); experiment: Format 2 …, capture MAb264, detection Pb264; sFlt-1 613 pmol/L (ratio 20)
[6] = molecular target: human PlGF-1 comprising amino acids 1-137 produced in human embryonic kidney cells (human) (UniProt P49763); experiment: Format 3 Quantikine ELISA, capture MAb264, detection Pb264; sFlt-1 613 pmol/L (ratio 20)
[7] = molecular target: human PlGF-1 comprising amino acids 1-137 produced in human embryonic kidney cells (human) (UniProt P49763); experiment: Format 1 …, capture 2-826-335, detection 1-255-713; sFlt-1 3067 pmol/L (ratio 100)
[8] = molecular target: human PlGF-1 comprising amino acids 1-137 produced in human embryonic kidney cells (human) (UniProt P49763); experiment: Format 1 …, capture 2-826-335, detection 1-255-713; sFlt-1 1227 pmol/L (ratio 40)
[9] = molecular target: human PlGF-1 comprising amino acids 1-137 produced in human embryonic kidney cells (human) (UniProt P49763); experiment: Format 1 …, capture 2-826-335, detection 1-255-713; sFlt-1 307 pmol/L (ratio 10)
[10] = molecular target: human PlGF-1 comprising amino acids 1-137 produced in human embryonic kidney cells (human) (UniProt P49763); experiment: Format 1 …, capture 2-826-335, detection 1-255-713; sFlt-1 9200 pmol/L (ratio 300)
[11] = molecular target: human PlGF-1 comprising amino acids 1-137 produced in human embryonic kidney cells (human) (UniProt P49763); experiment: Format 3 Quantikine ELISA, capture MAb264, detection Pb264; sFlt-1 1227 pmol/L (ratio 40)
[12] = molecular target: T1, human PlGF-1 comprising amino acids 1-137 produced in human embryonic kidney cells (human, UniProt P49763 19-221); experiment: … sandwich, capture MAb255, detection pAb264; antigen 15 pg/mL
T1 construct: Mature human PlGF-1 with 6xHis tag; also called HEK (1-137); full length HEK human PlGF-1 (1-137)
T1 sequence: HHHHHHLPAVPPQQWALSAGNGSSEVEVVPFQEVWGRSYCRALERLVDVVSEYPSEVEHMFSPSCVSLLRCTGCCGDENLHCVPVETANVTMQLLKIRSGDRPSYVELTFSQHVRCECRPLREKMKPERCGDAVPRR

[13] = molecular target: T2, human PlGF-1 fragment (comprising amino acids 17-131) produced in human embryonic kidney cells (human, UniProt P49763 35-221); experiment: as above
T2 sequence: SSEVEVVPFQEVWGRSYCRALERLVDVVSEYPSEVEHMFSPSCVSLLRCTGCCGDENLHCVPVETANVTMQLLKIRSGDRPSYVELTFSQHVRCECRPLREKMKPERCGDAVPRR

[14] = molecular target: T3, CHO human PlGF-1 comprising amino acids 1-137 (human PlGF-1-His (1-131), CHO 6305) (human, UniProt P49763 19-221, N-glycans at N21 (completely glycosylated) and N89 (partially glycosylated)); experiment: as above
T3 construct: Mature human PlGF-1 with 6xHis tag (137 amino acids); also called CHO (1-137)
T3 sequence: T1 sequence

[15] = molecular target: T4, CHO human PlGF-1 fragment (comprising amino acids 17-131; ATCC PTA-8540) (human, UniProt P49763 35-221); experiment: as above
T4 sequence: T2 sequence

[16] = molecular target: recombinant human PlGF-1 (comprising amino acids 1-131) expressed in E. coli (R&D Systems) (human) (UniProt P49763); experiment: … sandwich, capture MAb255, detection MAb826; antigen 0 pg/mL (blank)
[17] = molecular target: recombinant human PlGF-1 (comprising amino acids 1-131) expressed in E. coli (R&D Systems) (human) (UniProt P49763); experiment: … sandwich, capture MAb255, detection pAb264; antigen 250 pg/mL
[18] = molecular target: T1, human PlGF-1 comprising amino acids …; experiment: … sandwich, capture MAb826, detection pAb264; antigen 1500 pg/mL
[19] = molecular target: T2, human PlGF-1 fragment (comprising amino …); experiment: as above
[20] = molecular target: T4, CHO human PlGF-1 fragment (comprising …); experiment: as above

% Inhibition [1]: 93.6%
PlGF-1 Measured [1]: 65 pg/mL
% Inhibition [2]: 81.8%
PlGF-1 Measured [2]: 143 pg/mL
% Inhibition [3]: 24.6%
PlGF-1 Measured [3]: 652 pg/mL
% Inhibition [4]: 64.1%
PlGF-1 Measured [4]: 367 pg/mL
% Inhibition [5]: 89.5%
PlGF-1 Measured [5]: 82.9 pg/mL
% Inhibition [6]: 40.4%
PlGF-1 Measured [6]: 515 pg/mL
% Inhibition [7]: 94.1%
PlGF-1 Measured [7]: 60.3 pg/mL
% Inhibition [8]: 91.9%
PlGF-1 Measured [8]: 83.2 pg/mL
% Inhibition [9]: 80.7%
PlGF-1 Measured [9]: 197 pg/mL
% Inhibition [10]: 95.9%
PlGF-1 Measured [10]: 42.1 pg/mL
% Inhibition [11]: 51.8%
PlGF-1 Measured [11]: 417 pg/mL
Molecule: native sFlt-1, isolated from human placental tissue (from UniProt P17948 27-687) (receptor)

RLU [12]: 46700 RLU
RLU [13]: 32900 RLU
RLU [14]: 26400 RLU
RLU [15]: 28700 RLU
RLU [16]: 6110 RLU
RLU [17]: 543000 RLU
B1: monoclonal antibody 1-255-713 (produced by murine hybridoma cell line 1-255-713, ATCC PTA-8536) (antibody, mouse IgG2a, V domains shown)
VH: QVHLQQSGAELMKPGASVKISCKATGYTFSSYWIEWVKQRPGHGLEWIGEILPGSVSNNFNEKFKDKATLTADPSSNTAYIQVSSLTSEDSAVYYCARSTGFYYGGNYFDHWGQGTTLAVSS
VL: DVVMTQTPLSLPVSPGDQASISCRSSQSLVHSNGHTYLHWYLQKPGQSPKLLIYKVSNRFSGVPDRVSGSGSGTDFTLKISRVEAEDLGVYFCSQSTHVPPTFGGGTKLEIKR
notes: also called MAb255

RLU [18]: 760000 RLU
RLU [19]: 624000 RLU
RLU [20]: 456000 RLU
B2: monoclonal antibody 2-826-335 (produced by murine hybridoma cell line 2-826-335, ATCC PTA-8539) (antibody, mouse IgG1, V domains shown)
VH: QVQLKQSGPGLVQPSQSLSITCTVSGFSLTTYGIHWVRQSPGKGLEWLGVMWSGGDTDYDAAFISRLSISKDNSKSQVFFKMNSLQANDTGIYYCARYRFYGMDYWGQGTSVTVSS
VL: AIQMTQSSSSFSVSLGDRVTITCKASEDIYNRFAWYQQKPGNAPRLLISGAASLEAGVPSRFSGSGSGQDYTLSITSLQTEDVATYYCQQYWSTPWTFGGGTKLEIKR
notes: also called MAb826

From patent US20100015637A1 (AbbVie / Abbott, published 2010)
